Laboratory results from publication PMC5870055, “Structural and Mechanistic Analysis of the Choline Sulfatase from Sinorhizobium melliloti: A Class I Sulfatase Specific for an Alkyl Sulfate Ester” (Journal of Molecular Biology, 2018).

Molecular target: the molecule itself
Test: SEC-MALS; 100 uL of 2 mg/mL protein on Superdex 200 10/300 HR in 100 mM Tris-HCl pH 8.0, 150 mM NaCl, 0.5 mL/min; multi-angle light scattering and differential refractive index detectors

| Protein | stoichiometry N |
| --- | --- |
| SmCS Δ23 (truncated mutant lacking 23 C-terminal amino acids) (domain or fragment, Sinorhizobium meliloti 1021, UniProt O69787 1-489, looked up, Choline sulfatase (BetC) of S. meliloti 1021 with Glu490 replaced by a stop codon, so that the last 23 residues (490-512) are missing; Predominantly a dimer (78%); source: E. coli BL21(DE3) expressing MtbFGE, purified (Q-Sepharose, Strep-Tactin, Superdex 200)) MTTGKPNILIIMVDQLNGKLFPDGPADFLHAPNLKALAKRSARFHNNYTSSPLCAPARASFMAGQLPSRTRVYDNAAEYQSSIPTYAHHLRRAGYYTALSGKMHFVGPDQLHGFEERLTTDIYPADFGWTPDYRKPGERIDWWYHNLGSVTGAGVAEITNQMEYDDEVAFLANQKLYQLSRENDDESRRPWCLTVSFTHPHDPYVARRKFWDLYEDCEHLTPEVGAIPLDEQDPHSQRIMLSCDYQNFDVTEENVRRSRRAYFANISYLDEKVGELIDTLTRTRMLDDTLILFCSDHGDMLGERGLWFKMNFFEGSARVPLMIAGPGIAPGLHLTPTSNLDVTPTLADLAGISLEEVRPWTDGVSLVPMVNGVERTEPVLMEYAAEASYAPLVAIREGKWKYVYCALDPEQLFDLEADPLELTNLAENPRGPVDQATLTAFRDMRAAHWDMEAFDAAVRESQARRWVVYEALRNGAYYPWDHQPLQKAS | 2 |
| SmCS Δ12 (truncated mutant lacking 12 C-terminal amino acids) (domain or fragment, Sinorhizobium meliloti 1021, UniProt O69787 1-500, looked up, Choline sulfatase (BetC) of S. meliloti 1021 with Thr501 replaced by a stop codon, so that the last 12 residues (501-512) are missing; Predominantly a tetramer (87%), with some dimer (11%) and monomer (2%); Made from the pASK-IBA5plusSmCS WT plasmid by QuikChange; source: E. coli BL21(DE3) expressing MtbFGE, purified (Q-Sepharose, Strep-Tactin, Superdex 200)) MTTGKPNILIIMVDQLNGKLFPDGPADFLHAPNLKALAKRSARFHNNYTSSPLCAPARASFMAGQLPSRTRVYDNAAEYQSSIPTYAHHLRRAGYYTALSGKMHFVGPDQLHGFEERLTTDIYPADFGWTPDYRKPGERIDWWYHNLGSVTGAGVAEITNQMEYDDEVAFLANQKLYQLSRENDDESRRPWCLTVSFTHPHDPYVARRKFWDLYEDCEHLTPEVGAIPLDEQDPHSQRIMLSCDYQNFDVTEENVRRSRRAYFANISYLDEKVGELIDTLTRTRMLDDTLILFCSDHGDMLGERGLWFKMNFFEGSARVPLMIAGPGIAPGLHLTPTSNLDVTPTLADLAGISLEEVRPWTDGVSLVPMVNGVERTEPVLMEYAAEASYAPLVAIREGKWKYVYCALDPEQLFDLEADPLELTNLAENPRGPVDQATLTAFRDMRAAHWDMEAFDAAVRESQARRWVVYEALRNGAYYPWDHQPLQKASERYMRNHMNLD | 4 |
| Sinorhizobium meliloti choline sulfatase wild type (enzyme, Sinorhizobium meliloti 1021, UniProt O69787 1-512, looked up, Cys54 partially converted into formylglycine (fGly); modelled as cysteine and formyl glycine at 50% occupancy each, Choline sulfatase (BetC) of S. meliloti 1021; the whole gene (positions 1491-3029 of GenBank U39940) amplified from genomic DNA and cloned into pASK-IBA5plus; the C-terminal region is printed as residues 449-512; Protomer Mw ~61 kDa; also called SmCS; SmCS WT; source: E. coli BL21(DE3) expressing MtbFGE, purified (Q-Sepharose, Strep-Tactin, Superdex 200)) MTTGKPNILIIMVDQLNGKLFPDGPADFLHAPNLKALAKRSARFHNNYTSSPLCAPARASFMAGQLPSRTRVYDNAAEYQSSIPTYAHHLRRAGYYTALSGKMHFVGPDQLHGFEERLTTDIYPADFGWTPDYRKPGERIDWWYHNLGSVTGAGVAEITNQMEYDDEVAFLANQKLYQLSRENDDESRRPWCLTVSFTHPHDPYVARRKFWDLYEDCEHLTPEVGAIPLDEQDPHSQRIMLSCDYQNFDVTEENVRRSRRAYFANISYLDEKVGELIDTLTRTRMLDDTLILFCSDHGDMLGERGLWFKMNFFEGSARVPLMIAGPGIAPGLHLTPTSNLDVTPTLADLAGISLEEVRPWTDGVSLVPMVNGVERTEPVLMEYAAEASYAPLVAIREGKWKYVYCALDPEQLFDLEADPLELTNLAENPRGPVDQATLTAFRDMRAAHWDMEAFDAAVRESQARRWVVYEALRNGAYYPWDHQPLQKASERYMRNHMNLDTLEESKRYPRGE | 4 |
